The record followed here is paper PMC9241815, “Role of the Two-Component System CiaRH in the Regulation of Efflux Pump SatAB and Its Correlation with Fluoroquinolone Susceptibility”.

The target of data set [1] is SatR (Streptococcus suis (WT strain, name not in the material)) (UniProt G9CHX9). Nature of the data set: BLI. The note with it: EMSA: Beyotime EMSA binding buffer, 20 min, room temperature, 4% native PAGE; proteins dialyzed in 25 mM Tris pH 7.4, 150 mM NaCl, 5% glycerol, 0.5 mM EDTA ….
The target of data set [2] is CiaR, phosphorylated (Streptococcus suis (WT strain, name not in the material)) (UniProt A0A0H3MUU9). In words: BLI. The note with it: EMSA: Beyotime EMSA binding buffer, 20 min, room temperature, 4% native PAGE; proteins dialyzed in 25 mM Tris pH 7.4, 150 mM NaCl, 5% glycerol, 0.5 mM EDTA …. (In EMSA bound probe runs differently from free probe, usually more slowly.)
The target of data set [3] is T1, SatR (Streptococcus suis (WT strain, name not …, UniProt G9CHX9 1-149)). In words: EMSA; 200-800 ng SatR; EMSA: Beyotime EMSA binding buffer, 20 min, room temperature, 4% native PAGE; proteins dialyzed in 25 mM Tris pH 7.4, 150 mM NaCl, 5% glycerol, 0.5 mM EDTA, 1 mM DTT; BLI (Octet RED96) conditions not in material. The note with it: protein: recombinant; tags: C-terminal 6xHis (from primer; pET-30a(+)); chain copies: 2; label: biotin 3' end; blunt.

Data set [4] deals with T1, SatR. In words: EMSA; 800 ng SatR; EMSA: Beyotime EMSA binding buffer, 20 min, room temperature, 4% native PAGE; proteins dialyzed in 25 mM Tris pH 7.4, 150 mM NaCl, 5% glycerol, 0.5 mM EDTA, 1 mM DTT; BLI (Octet RED96) conditions not in material. The note with it: protein: recombinant; tags: C-terminal 6xHis (from primer; pET-30a(+)); chain copies: 2; label: biotin 3' end; blunt.

Regarding satAB promoter (Octet), the Kd in data set [1] is 61 nM; in data set [2], 434 nM.

B1: satRAB promoter EMSA probe (dsDNA)
DNA 1: TTGACAATAGTTCTTAAGAGAACTATAATAGTTCTCATGGTAATTATTTTCGTAGAAAG
DNA 2: CTTTCTACGAAAATAATTACCATGAGAACTATTATAGTTCTCTTAAGAACTATTGTCAA
As to B1, the binding result in the data set with SatR [3] is on record as “binds”.

B2: satAB internal fragment (EMSAneg-satR) (dsDNA)
DNA 1: CTCGCTTGGCCTTGGTGACCATTGCTTCTACGCCAGTTGCCTTGATTGCCTTGGTCGTT
DNA 2: AACGACCAAGGCAATCAAGGCAACTGGCGTAGAAGCAATGGTCACCAAGGCCAAGCGAG
Turning to B2, in the data set with SatR [4], the binding result is “no binding”.

Broadly, the Kd is the constant that tells how readily two partners part at equilibrium.
